We go through two substances from patent US6867011B1, “Synthetic bioepitope compounds which can be used as standards in the biological assays of Troponin I” (Bio-Rad Pasteur, priority 1996, dated 2005).

A short description of data set [1]: Tests of stability of compound 10 solutions stored at +4° C., assayed periodically with the troponin I kit. Type of data set: physicochemical. Conditions: buffer solutions stored at +4° C. As to the method: A compound according to the invention (compound 10) was diluted in water (C=2 mg/ml). From this “stock” solution, four “working” solutions S1, S2, S3 and S4 are obtained.
To carry out the various dilutions, a 0.1 M sodium succinate buffer solution (pH=6) containing Kathon (0.2%), Re gilait (0.05%) and 2 mM EDTA was used for solutions S1 (C=0.5 ng/ml) and S2 (C=1 ng/ml).
Solutions S3 (C=0.5 ng/ml) and S4 (C=1 ng/ml) were obtained by diluting the “stock” solution with phosphate buffer (KH2PO4/K2HPO4 pH=7.5) containing Kathon (0.2%), Régilait (0.05%) and 2 mM EDTA.
Solutions S1, S2, S3 and S4 were assayed, according to the protocol described in Example 2, on D0 (day of preparation of the solutions). The values obtained served as reference for monitoring stability.
Next, solutions S1, S2, S3 and S4 were stored at +4° C. and assayed periodically. During each series of assays, three “control solutions” were used. They are the freeze-dried troponin I control sera distributed in the assay measuring range. […] During each stability test, it was checked that each of the controls tested was obtained at its target concentration. This therefore made it possible to compare the concentrations obtained for the peptides during the various tests. […]

The format of data set [2] is physicochemical. As to the method: This stability study was validated with the aid of compound 6 stored at -20° C. and used as reference. It was checked beforehand that compound 6 is stable when stored at -20° C. for at least 18 months.

Consider “Ac-Asn Tyr Arg Ala Tyr Ala Thr Glu Pro His Ala Lys Lys Lys Ser Lys Gln Lys Met Gln Ala Met Met Gln Ala Leu Leu Gly Ala Arg Ala Lys Glu-NH2 (Ac-NYRAYATEPHAKKKSKQKMQAMMQALLGARAKE-NH2) [Compound 10, Ia with Ξ = Ac-NYRAYA-, Z = -AKKKSK-(QKMQ)1-AMMQA-, Ψ = -AKE-NH2]”, for which the “Stability of the solutions” value in data set [1] is “excellent stability”.

Regarding “Ac-Gly Asn Tyr Arg Ala Tyr Ala Thr Glu Pro His Ala Lys Lys -NH-(CH2)5-CO-Ala Met Met Gln Ala Leu Leu Gly Ala Arg Ala Lys Glu-NH2 [Compound 6]”, the “Duration stable when stored at −20° C.” value in data set [2] is on record as “at least 18 months”.
